Results from patent publication US20140087995A1 (published 2014).
One block for each binder: values may come before it. Numbered stars: 1 amine (or outer) side, 2 acyl side, 3 side chain; on linkers, the order of the positions; unused ones are H or OH. Bridge positions count the residues as written; N and C are the ends. Side chains are listed from the residue outwards. Ends that are not written are not given here. * marks the point of attachment. C20 diacid = O=C(O)CCCCCCCCCCCCCCCCCCC(=O)*; γGlu = O=C(O)[C@H](CCC(=O)[*:2])N[*:1]

Tests used:
[1] = target: T1, rat calcitonin receptor (rat, UniProt P32214 25-516); assay: ratio of binding IC50 at rat calcitonin receptor to IC50 at rat amylin receptor (reference)
T1 construct: whole, on cells; Used as membranes prepared from the transfected cells; also called rCTR; rCT
T1 sequence (looked up): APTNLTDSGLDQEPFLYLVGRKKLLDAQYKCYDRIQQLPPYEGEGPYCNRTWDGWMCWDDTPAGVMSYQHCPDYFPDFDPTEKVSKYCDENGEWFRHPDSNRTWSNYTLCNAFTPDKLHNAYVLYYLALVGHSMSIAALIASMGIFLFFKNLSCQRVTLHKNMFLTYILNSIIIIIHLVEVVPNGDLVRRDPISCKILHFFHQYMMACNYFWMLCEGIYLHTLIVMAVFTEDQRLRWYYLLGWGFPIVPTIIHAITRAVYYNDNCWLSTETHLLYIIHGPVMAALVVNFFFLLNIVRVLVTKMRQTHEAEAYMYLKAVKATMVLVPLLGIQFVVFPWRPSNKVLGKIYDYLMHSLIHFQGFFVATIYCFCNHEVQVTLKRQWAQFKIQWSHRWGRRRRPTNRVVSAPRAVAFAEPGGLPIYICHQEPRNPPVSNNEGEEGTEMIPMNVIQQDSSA

[2] = target: T2, human calcitonin receptor (human, UniProt P30988 25-474); assay: ratio of binding IC50 at human calcitonin receptor to IC50 at human amylin receptor (reference)
T2 construct: whole, on cells; Used as membranes prepared from the transfected cells; also called hCTR; hCT
T2 sequence (looked up): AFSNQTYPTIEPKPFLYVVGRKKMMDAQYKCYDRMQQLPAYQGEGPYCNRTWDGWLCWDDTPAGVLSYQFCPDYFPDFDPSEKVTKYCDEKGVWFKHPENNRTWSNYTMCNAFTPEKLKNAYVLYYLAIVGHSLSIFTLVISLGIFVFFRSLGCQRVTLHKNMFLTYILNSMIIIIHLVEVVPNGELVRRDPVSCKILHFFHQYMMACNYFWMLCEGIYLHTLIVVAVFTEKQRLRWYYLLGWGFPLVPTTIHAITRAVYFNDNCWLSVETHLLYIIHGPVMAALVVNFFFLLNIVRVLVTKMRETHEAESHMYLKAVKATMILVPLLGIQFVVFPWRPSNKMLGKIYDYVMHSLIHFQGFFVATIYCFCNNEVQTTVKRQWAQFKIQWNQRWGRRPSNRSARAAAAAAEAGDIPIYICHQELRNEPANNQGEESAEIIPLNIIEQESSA
Method in brief: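 Membranes (35 ng/μL final) + SPA beads, 50 mM Hepes pH 7.4 buffer with 1 mM CaCl2, 5 mM MgCl₂, 0.1% OA, 0.02% Tween20; 120 min, 25° C, shaking; centrifuged, counted; IC₅₀ by one-site binding competition.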

[3] = target: T1, rat calcitonin receptor; assay: SPA competition with 125I-calcitonin, membranes with rat calcitonin receptor (Assay VIII)

Ratio rCT/rAmylin binding [1]: 137
Ratio hCT/hAmylin binding [2]: 118
IC50 [3]: 205 nM
B1: N^ε1-[(4S)-4-carboxy-4-(19-carboxynonadecanoylamino)butanoyl]-[Arg17,Pro21,Pro27,His34]-h-amylin (peptide)
peptide: K([γGlu-C20 diacid])CNTATCATQRLANFLRHSSPNFGAIPSSTNVGHNTY-NH2
modifications: disulfide 2-7; N-terminus assumed
SMILES: CC[C@H](C)[C@H](NC(=O)[C@H](C)NC(=O)CNC(=O)[C@H](Cc1ccccc1)NC(=O)[C@H](CC(N)=O)NC(=O)[C@@H]1CCCN1C(=O)[C@H](CO)NC(=O)[C@H](CO)NC(=O)[C@H](Cc1c[nH]cn1)NC(=O)[C@H](CCCNC(=N)N)NC(=O)[C@H](CC(C)C)NC(=O)[C@H](Cc1ccccc1)NC(=O)[C@H](CC(N)=O)NC(=O)[C@H](C)NC(=O)[C@H](CC(C)C)NC(=O)[C@H](CCCNC(=N)N)NC(=O)[C@H](CCC(N)=O)NC(=O)[C@@H](NC(=O)[C@H](C)NC(=O)[C@@H]1CSSC[C@H](NC(=O)[C@@H](N)CCCCNC(=O)CC[C@H](NC(=O)CCCCCCCCCCCCCCCCCCC(=O)O)C(=O)O)C(=O)N[C@@H](CC(N)=O)C(=O)N[C@@H]([C@@H](C)O)C(=O)N[C@@H](C)C(=O)N[C@@H]([C@@H](C)O)C(=O)N1)[C@@H](C)O)C(=O)N1CCC[C@H]1C(=O)N[C@@H](CO)C(=O)N[C@@H](CO)C(=O)N[C@H](C(=O)N[C@@H](CC(N)=O)C(=O)N[C@H](C(=O)NCC(=O)N[C@@H](Cc1c[nH]cn1)C(=O)N[C@@H](CC(N)=O)C(=O)N[C@H](C(=O)N[C@@H](Cc1ccc(O)cc1)C(N)=O)[C@@H](C)O)C(C)C)[C@@H](C)O
notes: Analogue of human amylin; disulfide and C-terminal amide as told for h-amylin; also called compound 77

Ratio rCT/rAmylin binding [1]: 46.5
Ratio hCT/hAmylin binding [2]: 91.8
IC50 [3]: 146 nM
B2: N^ε1-[(4S)-4-carboxy-4-(19-carboxynonadecanoylamino)butanoyl]-[His14,Arg17,Pro21,Pro27,Arg34]-h-amylin (peptide)
peptide: K([γGlu-C20 diacid])CNTATCATQRLAHFLRHSSPNFGAIPSSTNVGRNTY-NH2
modifications: disulfide 2-7; N-terminus assumed
SMILES: CC[C@H](C)[C@H](NC(=O)[C@H](C)NC(=O)CNC(=O)[C@H](Cc1ccccc1)NC(=O)[C@H](CC(N)=O)NC(=O)[C@@H]1CCCN1C(=O)[C@H](CO)NC(=O)[C@H](CO)NC(=O)[C@H](Cc1c[nH]cn1)NC(=O)[C@H](CCCNC(=N)N)NC(=O)[C@H](CC(C)C)NC(=O)[C@H](Cc1ccccc1)NC(=O)[C@H](Cc1c[nH]cn1)NC(=O)[C@H](C)NC(=O)[C@H](CC(C)C)NC(=O)[C@H](CCCNC(=N)N)NC(=O)[C@H](CCC(N)=O)NC(=O)[C@@H](NC(=O)[C@H](C)NC(=O)[C@@H]1CSSC[C@H](NC(=O)[C@@H](N)CCCCNC(=O)CC[C@H](NC(=O)CCCCCCCCCCCCCCCCCCC(=O)O)C(=O)O)C(=O)N[C@@H](CC(N)=O)C(=O)N[C@@H]([C@@H](C)O)C(=O)N[C@@H](C)C(=O)N[C@@H]([C@@H](C)O)C(=O)N1)[C@@H](C)O)C(=O)N1CCC[C@H]1C(=O)N[C@@H](CO)C(=O)N[C@@H](CO)C(=O)N[C@H](C(=O)N[C@@H](CC(N)=O)C(=O)N[C@H](C(=O)NCC(=O)N[C@@H](CCCNC(=N)N)C(=O)N[C@@H](CC(N)=O)C(=O)N[C@H](C(=O)N[C@@H](Cc1ccc(O)cc1)C(N)=O)[C@@H](C)O)C(C)C)[C@@H](C)O
notes: Analogue of human amylin; disulfide and C-terminal amide as told for h-amylin; also called compound 85

Ratio rCT/rAmylin binding [1]: 35.8
Ratio hCT/hAmylin binding [2]: 45.5
IC50 [3]: 20.8 nM
B3: N^ε1-[(4S)-4-carboxy-4-(19-carboxynonadecanoylamino)butanoyl]-[His14,Arg17,Pro21,Pro27,His35]-h-amylin (peptide)
peptide: K([γGlu-C20 diacid])CNTATCATQRLAHFLRHSSPNFGAIPSSTNVGSHTY-NH2
modifications: disulfide 2-7; N-terminus assumed
SMILES: CC[C@H](C)[C@H](NC(=O)[C@H](C)NC(=O)CNC(=O)[C@H](Cc1ccccc1)NC(=O)[C@H](CC(N)=O)NC(=O)[C@@H]1CCCN1C(=O)[C@H](CO)NC(=O)[C@H](CO)NC(=O)[C@H](Cc1c[nH]cn1)NC(=O)[C@H](CCCNC(=N)N)NC(=O)[C@H](CC(C)C)NC(=O)[C@H](Cc1ccccc1)NC(=O)[C@H](Cc1c[nH]cn1)NC(=O)[C@H](C)NC(=O)[C@H](CC(C)C)NC(=O)[C@H](CCCNC(=N)N)NC(=O)[C@H](CCC(N)=O)NC(=O)[C@@H](NC(=O)[C@H](C)NC(=O)[C@@H]1CSSC[C@H](NC(=O)[C@@H](N)CCCCNC(=O)CC[C@H](NC(=O)CCCCCCCCCCCCCCCCCCC(=O)O)C(=O)O)C(=O)N[C@@H](CC(N)=O)C(=O)N[C@@H]([C@@H](C)O)C(=O)N[C@@H](C)C(=O)N[C@@H]([C@@H](C)O)C(=O)N1)[C@@H](C)O)C(=O)N1CCC[C@H]1C(=O)N[C@@H](CO)C(=O)N[C@@H](CO)C(=O)N[C@H](C(=O)N[C@@H](CC(N)=O)C(=O)N[C@H](C(=O)NCC(=O)N[C@@H](CO)C(=O)N[C@@H](Cc1c[nH]cn1)C(=O)N[C@H](C(=O)N[C@@H](Cc1ccc(O)cc1)C(N)=O)[C@@H](C)O)C(C)C)[C@@H](C)O
notes: Analogue of human amylin; disulfide and C-terminal amide as told for h-amylin; also called compound 66

Ratio rCT/rAmylin binding [1]: 42.9
Ratio hCT/hAmylin binding [2]: 87.2
IC50 [3]: 61.1 nM
B4: N^ε1-[(4S)-4-carboxy-4-(19-carboxynonadecanoylamino)butanoyl]-[His14,Arg17,Pro21,Pro27,His34]-h-amylin (peptide)
peptide: K([γGlu-C20 diacid])CNTATCATQRLAHFLRHSSPNFGAIPSSTNVGHNTY-NH2
modifications: disulfide 2-7; N-terminus assumed
SMILES: CC[C@H](C)[C@H](NC(=O)[C@H](C)NC(=O)CNC(=O)[C@H](Cc1ccccc1)NC(=O)[C@H](CC(N)=O)NC(=O)[C@@H]1CCCN1C(=O)[C@H](CO)NC(=O)[C@H](CO)NC(=O)[C@H](Cc1c[nH]cn1)NC(=O)[C@H](CCCNC(=N)N)NC(=O)[C@H](CC(C)C)NC(=O)[C@H](Cc1ccccc1)NC(=O)[C@H](Cc1c[nH]cn1)NC(=O)[C@H](C)NC(=O)[C@H](CC(C)C)NC(=O)[C@H](CCCNC(=N)N)NC(=O)[C@H](CCC(N)=O)NC(=O)[C@@H](NC(=O)[C@H](C)NC(=O)[C@@H]1CSSC[C@H](NC(=O)[C@@H](N)CCCCNC(=O)CC[C@H](NC(=O)CCCCCCCCCCCCCCCCCCC(=O)O)C(=O)O)C(=O)N[C@@H](CC(N)=O)C(=O)N[C@@H]([C@@H](C)O)C(=O)N[C@@H](C)C(=O)N[C@@H]([C@@H](C)O)C(=O)N1)[C@@H](C)O)C(=O)N1CCC[C@H]1C(=O)N[C@@H](CO)C(=O)N[C@@H](CO)C(=O)N[C@H](C(=O)N[C@@H](CC(N)=O)C(=O)N[C@H](C(=O)NCC(=O)N[C@@H](Cc1c[nH]cn1)C(=O)N[C@@H](CC(N)=O)C(=O)N[C@H](C(=O)N[C@@H](Cc1ccc(O)cc1)C(N)=O)[C@@H](C)O)C(C)C)[C@@H](C)O
notes: Analogue of human amylin; disulfide and C-terminal amide as told for h-amylin; also called compound 81

Ratio rCT/rAmylin binding [1]: 126
Ratio hCT/hAmylin binding [2]: 159
IC50 [3]: 352 nM
B5: N^ε1-[(4S)-4-carboxy-4-[[(4S)-4-carboxy-4-(19-carboxynonadecanoylamino)butanoyl]amino]butanoyl]-[Arg17,Pro21,Pro27,His34]-h-amylin (peptide)
peptide: K([γGlu-γGlu-C20 diacid])CNTATCATQRLANFLRHSSPNFGAIPSSTNVGHNTY-NH2
modifications: disulfide 2-7; N-terminus assumed
SMILES: CC[C@H](C)[C@H](NC(=O)[C@H](C)NC(=O)CNC(=O)[C@H](Cc1ccccc1)NC(=O)[C@H](CC(N)=O)NC(=O)[C@@H]1CCCN1C(=O)[C@H](CO)NC(=O)[C@H](CO)NC(=O)[C@H](Cc1c[nH]cn1)NC(=O)[C@H](CCCNC(=N)N)NC(=O)[C@H](CC(C)C)NC(=O)[C@H](Cc1ccccc1)NC(=O)[C@H](CC(N)=O)NC(=O)[C@H](C)NC(=O)[C@H](CC(C)C)NC(=O)[C@H](CCCNC(=N)N)NC(=O)[C@H](CCC(N)=O)NC(=O)[C@@H](NC(=O)[C@H](C)NC(=O)[C@@H]1CSSC[C@H](NC(=O)[C@@H](N)CCCCNC(=O)CC[C@H](NC(=O)CC[C@H](NC(=O)CCCCCCCCCCCCCCCCCCC(=O)O)C(=O)O)C(=O)O)C(=O)N[C@@H](CC(N)=O)C(=O)N[C@@H]([C@@H](C)O)C(=O)N[C@@H](C)C(=O)N[C@@H]([C@@H](C)O)C(=O)N1)[C@@H](C)O)C(=O)N1CCC[C@H]1C(=O)N[C@@H](CO)C(=O)N[C@@H](CO)C(=O)N[C@H](C(=O)N[C@@H](CC(N)=O)C(=O)N[C@H](C(=O)NCC(=O)N[C@@H](Cc1c[nH]cn1)C(=O)N[C@@H](CC(N)=O)C(=O)N[C@H](C(=O)N[C@@H](Cc1ccc(O)cc1)C(N)=O)[C@@H](C)O)C(C)C)[C@@H](C)O
notes: Analogue of human amylin; disulfide and C-terminal amide as told for h-amylin; also called compound 86
